Test results published in patent US20200164032A1.

Experiments:
[1] = target: XCL1 (as tested against T17; species not stated)
[2] = target: CXCL12 (hSDF-1b) (Homo sapiens) (UniProt P48061)
[3] = target: CXCL10 (as tested against T17; species not stated)
murine CCL2 (mouse) [4] = target: murine CCL2 (mouse) (UniProt P10148); assay: SPR, T17 amine-coupled to CM5 chip
murine CCL3 (mouse) [5] = target: murine CCL3 (mouse) (UniProt P10855); assay: SPR, T17 amine-coupled to CM5 chip
human CCL2 (human) [6] = target: human CCL2 (human) (UniProt P13500); assay: SPR, T17 amine-coupled to CM5 chip
human CCL2 (human), sequence (P13500 24-99 limits assumed): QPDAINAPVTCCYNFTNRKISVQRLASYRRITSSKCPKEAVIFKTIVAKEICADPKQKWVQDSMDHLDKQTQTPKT

murine CCL4 (mouse) [7] = target: murine CCL4 (mouse) (UniProt P14097); assay: SPR (Biacore T-100), T17 on CM5 chip; KD,eq
murine CCL4 (mouse), sequence (P14097 24-92 limits assumed): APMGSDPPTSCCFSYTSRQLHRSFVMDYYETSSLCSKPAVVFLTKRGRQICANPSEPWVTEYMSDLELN

CCL9 [8] = target: CCL9 (UniProt P51670); assay: SPR (Biacore T-100), T17 on CM5 chip; KD,eq
CCL9, sequence (P51670 22-122 limits assumed): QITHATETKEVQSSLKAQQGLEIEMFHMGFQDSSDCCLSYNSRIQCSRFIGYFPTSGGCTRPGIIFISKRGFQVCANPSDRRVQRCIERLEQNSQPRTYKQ

murine CCL8 (mouse) [9] = target: murine CCL8 (mouse) (UniProt Q9Z121); assay: SPR (Biacore T-100), T17 on CM5 chip; KD,eq
murine CCL8 (mouse), sequence (Q9Z121 24-97 limits assumed): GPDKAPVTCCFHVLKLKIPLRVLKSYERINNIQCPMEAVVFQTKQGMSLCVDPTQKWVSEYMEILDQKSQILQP

murine CCL20 (mouse) [10] = target: murine CCL20 (mouse) (UniProt O89093); assay: SPR (Biacore T-100), T17 on CM5 chip; KD,eq
murine CCL20 (mouse), sequence (O89093 28-97 limits assumed): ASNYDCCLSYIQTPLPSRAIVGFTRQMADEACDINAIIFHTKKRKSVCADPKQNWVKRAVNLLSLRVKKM

murine CCL2 (mouse) [11] = target: murine CCL2 (mouse) (UniProt P10148); assay: SPR (Biacore T-100), T17 on CM5 chip; KD,eq
murine CCL24 (mouse) [12] = target: murine CCL24 (mouse) (UniProt Q9JKC0); assay: SPR (Biacore T-100), T17 on CM5 chip; KD,eq
murine CCL24 (mouse), sequence (Q9JKC0 27-119 limits assumed): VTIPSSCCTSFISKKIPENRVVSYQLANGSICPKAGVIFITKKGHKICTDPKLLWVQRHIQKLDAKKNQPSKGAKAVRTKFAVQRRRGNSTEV

murine CCL11 (mouse) [13] = target: murine CCL11 (mouse) (UniProt P48298); assay: SPR (Biacore T-100), T17 on CM5 chip; KD,eq
murine CCL11 (mouse), sequence (P48298 24-97 limits assumed): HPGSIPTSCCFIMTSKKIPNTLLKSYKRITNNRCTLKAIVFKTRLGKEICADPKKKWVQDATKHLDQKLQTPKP

murine CCL12 (mouse) [14] = target: murine CCL12 (mouse) (UniProt Q62401); assay: SPR (Biacore T-100), T17 on CM5 chip; KD,eq
murine CCL12 (mouse), sequence (Q62401 23-104 limits assumed): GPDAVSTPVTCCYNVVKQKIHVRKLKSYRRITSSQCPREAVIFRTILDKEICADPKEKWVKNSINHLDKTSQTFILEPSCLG

murine CCL3 (mouse) [15] = target: murine CCL3 (mouse) (UniProt P10855); assay: SPR (Biacore T-100), T17 on CM5 chip; KD,eq
murine CCL21 (mouse) [16] = target: murine CCL21 (mouse) (UniProt P84444); assay: SPR (Biacore T-100), T17 on CM5 chip; KD,eq
murine CCL21 (mouse), sequence (P84444 24-133): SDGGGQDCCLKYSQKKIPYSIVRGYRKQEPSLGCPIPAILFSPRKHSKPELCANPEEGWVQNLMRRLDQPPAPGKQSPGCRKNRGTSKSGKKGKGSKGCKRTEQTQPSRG

human CCL2 (human) [17] = target: human CCL2 (human) (UniProt P13500); assay: SPR (Biacore T-100), T17 on CM5 chip; KD,eq
murine CCL5 (mouse) [18] = target: murine CCL5 (mouse) (UniProt P30882); assay: SPR (Biacore T-100), T17 on CM5 chip; KD,eq
murine CCL5 (mouse), sequence (P30882 24-91 limits assumed): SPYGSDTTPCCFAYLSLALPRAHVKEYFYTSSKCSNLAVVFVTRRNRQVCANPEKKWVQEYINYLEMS

murine CCL4 (mouse) [19] = target: murine CCL4 (mouse) (UniProt P14097); assay: SPR (Biacore T-100), T17 on CM5 chip; KD,kin
CCL9 [20] = target: CCL9 (UniProt P51670); assay: SPR (Biacore T-100), T17 on CM5 chip; KD,kin
murine CCL8 (mouse) [21] = target: murine CCL8 (mouse) (UniProt Q9Z121); assay: SPR (Biacore T-100), T17 on CM5 chip; KD,kin
murine CCL20 (mouse) [22] = target: murine CCL20 (mouse) (UniProt O89093); assay: SPR (Biacore T-100), T17 on CM5 chip; KD,kin
murine CCL2 (mouse) [23] = target: murine CCL2 (mouse) (UniProt P10148); assay: SPR (Biacore T-100), T17 on CM5 chip; KD,kin
murine CCL24 (mouse) [24] = target: murine CCL24 (mouse) (UniProt Q9JKC0); assay: SPR (Biacore T-100), T17 on CM5 chip; KD,kin
murine CCL11 (mouse) [25] = target: murine CCL11 (mouse) (UniProt P48298); assay: SPR (Biacore T-100), T17 on CM5 chip; KD,kin
murine CCL12 (mouse) [26] = target: murine CCL12 (mouse) (UniProt Q62401); assay: SPR (Biacore T-100), T17 on CM5 chip; KD,kin
murine CCL3 (mouse) [27] = target: murine CCL3 (mouse) (UniProt P10855); assay: SPR (Biacore T-100), T17 on CM5 chip; KD,kin
murine CCL21 (mouse) [28] = target: murine CCL21 (mouse) (UniProt P84444); assay: SPR (Biacore T-100), T17 on CM5 chip; KD,kin
human CCL2 (human) [29] = target: human CCL2 (human) (UniProt P13500); assay: SPR (Biacore T-100), T17 on CM5 chip; KD,kin
murine CCL5 (mouse) [30] = target: murine CCL5 (mouse) (UniProt P30882); assay: SPR (Biacore T-100), T17 on CM5 chip; KD,kin
[31] = target: XCL1 (as tested against T17; species not stated); assay: BLI (Octet Red), biotinylated T17 on streptavidin biosensors; KD,eq
[32] = target: CXCL12 (hSDF-1b) (Homo sapiens) (UniProt P48061); assay: as above
[33] = target: CXCL10 (as tested against T17; species not stated); assay: as above
murine CCL4 (mouse) [34] = target: murine CCL4 (mouse) (UniProt P14097); assay: SPR (Biacore T-100), T17 on CM5 chip; t1/2
CCL9 [35] = target: CCL9 (UniProt P51670); assay: SPR (Biacore T-100), T17 on CM5 chip; t1/2
murine CCL8 (mouse) [36] = target: murine CCL8 (mouse) (UniProt Q9Z121); assay: SPR (Biacore T-100), T17 on CM5 chip; t1/2
murine CCL20 (mouse) [37] = target: murine CCL20 (mouse) (UniProt O89093); assay: SPR (Biacore T-100), T17 on CM5 chip; t1/2
murine CCL2 (mouse) [38] = target: murine CCL2 (mouse) (UniProt P10148); assay: SPR (Biacore T-100), T17 on CM5 chip; t1/2
murine CCL24 (mouse) [39] = target: murine CCL24 (mouse) (UniProt Q9JKC0); assay: SPR (Biacore T-100), T17 on CM5 chip; t1/2
murine CCL11 (mouse) [40] = target: murine CCL11 (mouse) (UniProt P48298); assay: SPR (Biacore T-100), T17 on CM5 chip; t1/2
murine CCL12 (mouse) [41] = target: murine CCL12 (mouse) (UniProt Q62401); assay: SPR (Biacore T-100), T17 on CM5 chip; t1/2
murine CCL3 (mouse) [42] = target: murine CCL3 (mouse) (UniProt P10855); assay: SPR (Biacore T-100), T17 on CM5 chip; t1/2
murine CCL21 (mouse) [43] = target: murine CCL21 (mouse) (UniProt P84444); assay: SPR (Biacore T-100), T17 on CM5 chip; t1/2
human CCL2 (human) [44] = target: human CCL2 (human) (UniProt P13500); assay: SPR (Biacore T-100), T17 on CM5 chip; t1/2
murine CCL5 (mouse) [45] = target: murine CCL5 (mouse) (UniProt P30882); assay: SPR (Biacore T-100), T17 on CM5 chip; t1/2
[46] = target: XCL1 (as tested against T17; species not stated); assay: BLI (Octet Red), biotinylated T17 on streptavidin biosensors; KD,kin
[47] = target: CXCL12 (hSDF-1b) (Homo sapiens) (UniProt P48061); assay: as above
[48] = target: CXCL10 (as tested against T17; species not stated); assay: as above
murine CCL4 (mouse) [49] = target: murine CCL4 (mouse) (UniProt P14097); assay: SPR (Biacore T-100), T17 on CM5 chip; global 1:1 mass transport fit
CCL9 [50] = target: CCL9 (UniProt P51670); assay: as above
murine CCL8 (mouse) [51] = target: murine CCL8 (mouse) (UniProt Q9Z121); assay: as above
murine CCL20 (mouse) [52] = target: murine CCL20 (mouse) (UniProt O89093); assay: as above
murine CCL2 (mouse) [53] = target: murine CCL2 (mouse) (UniProt P10148); assay: as above
murine CCL24 (mouse) [54] = target: murine CCL24 (mouse) (UniProt Q9JKC0); assay: as above
murine CCL11 (mouse) [55] = target: murine CCL11 (mouse) (UniProt P48298); assay: as above
murine CCL12 (mouse) [56] = target: murine CCL12 (mouse) (UniProt Q62401); assay: as above
murine CCL3 (mouse) [57] = target: murine CCL3 (mouse) (UniProt P10855); assay: as above
murine CCL21 (mouse) [58] = target: murine CCL21 (mouse) (UniProt P84444); assay: as above
human CCL2 (human) [59] = target: human CCL2 (human) (UniProt P13500); assay: as above
murine CCL5 (mouse) [60] = target: murine CCL5 (mouse) (UniProt P30882); assay: as above
[61] = target: XCL1 (as tested against T17; species not stated); assay: BLI (Octet Red), biotinylated T17 on streptavidin biosensors; t1/2
[62] = target: CXCL12 (hSDF-1b) (Homo sapiens) (UniProt P48061); assay: as above
[63] = target: CXCL10 (as tested against T17; species not stated); assay: as above
[64] = target: CXCL12 (hSDF-1a) (Homo sapiens) (UniProt P48061); assay: as above
CXCL12 (hSDF-1a) (Homo sapiens), sequence (P48061 22-89 limits assumed): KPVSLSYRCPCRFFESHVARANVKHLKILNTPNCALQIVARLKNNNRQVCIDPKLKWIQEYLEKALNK

CXCL12 (hSDF-1b) (Homo sapiens), sequence (P48061 22-93): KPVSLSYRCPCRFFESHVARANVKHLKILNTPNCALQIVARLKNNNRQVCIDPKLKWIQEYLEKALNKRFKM
murine CCL3 (mouse), sequence (P10855 24-92 limits assumed): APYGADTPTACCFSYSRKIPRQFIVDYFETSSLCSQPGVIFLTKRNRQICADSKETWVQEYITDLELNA
murine CCL2 (mouse), sequence (P10148 24-148 limits assumed): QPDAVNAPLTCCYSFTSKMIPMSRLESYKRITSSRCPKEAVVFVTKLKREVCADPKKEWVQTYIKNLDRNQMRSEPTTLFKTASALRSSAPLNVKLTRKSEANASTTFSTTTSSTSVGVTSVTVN

T17 chemokine decoy receptor of Rodent herpesvirus Texas (RHVT), C-terminal His tag (6 histidine residues) fusion
koff [1]: 0.0127 s⁻¹ | kon [1]: 1.23e+06 M⁻¹ s⁻¹ | koff [2]: 0.0173 s⁻¹ | kon [2]: 436000 M⁻¹ s⁻¹ | koff [3]: 0.0174 s⁻¹ | kon [3]: 812000 M⁻¹ s⁻¹ | complex half-life (murine CCL2 (mouse) [4]): 225 s | complex half-life (t1/2) (murine CCL3 (mouse) [5]): 90 s | complex half-life (human CCL2 (human) [6]): 26 s | Kd (murine CCL4 (mouse) [7]): 4.74 nM | Kd (CCL9 [8]): 39.1 nM | Kd (murine CCL8 (mouse) [9]): 3.79 nM | Kd (murine CCL20 (mouse) [10]): 23.4 nM | Kd (murine CCL2 (mouse) [11]): 38.9 nM | Kd (murine CCL24 (mouse) [12]): 11.9 nM | Kd (murine CCL11 (mouse) [13]): 33.5 nM | Kd (murine CCL12 (mouse) [14]): 12.3 nM | Kd (murine CCL3 (mouse) [15]): 6.76 nM | Kd (murine CCL21 (mouse) [16]): 22.3 nM | Kd (human CCL2 (human) [17]): 14.9 nM | Kd (murine CCL5 (mouse) [18]): 4.15 nM | Kd (murine CCL4 (mouse) [19]): 0.16 nM | Kd (CCL9 [20]): 18 nM | Kd (murine CCL8 (mouse) [21]): 1.23 nM | Kd (murine CCL20 (mouse) [22]): 5.62 nM | Kd (murine CCL2 (mouse) [23]): 7.15 nM | Kd (murine CCL24 (mouse) [24]): 10.5 nM | Kd (murine CCL11 (mouse) [25]): 0.37 nM | Kd (murine CCL12 (mouse) [26]): 2.54 nM | Kd (murine CCL3 (mouse) [27]): 3.25 nM | Kd (murine CCL21 (mouse) [28]): 15.5 nM | Kd (human CCL2 (human) [29]): 1.76 nM | Kd (murine CCL5 (mouse) [30]): 1.47 nM | Kd [31]: 19.2 nM | Kd [32]: 44.2 nM | Kd [33]: 24.4 nM | t1/2 (murine CCL4 (mouse) [34]): 32.7 s | t1/2 (CCL9 [35]): 23.3 s | t1/2 (murine CCL8 (mouse) [36]): 33.9 s | t1/2 (murine CCL20 (mouse) [37]): 36.1 s | t1/2 (murine CCL2 (mouse) [38]): 225 s | t1/2 (murine CCL24 (mouse) [39]): 131 s | t1/2 (murine CCL11 (mouse) [40]): 109 s | t1/2 (murine CCL12 (mouse) [41]): 17.5 s | t1/2 (murine CCL3 (mouse) [42]): 90.7 s | t1/2 (murine CCL21 (mouse) [43]): 52.5 s | t1/2 (human CCL2 (human) [44]): 26.2 s | t1/2 (murine CCL5 (mouse) [45]): 196 s | Kd [46]: 10.4 nM | Kd [47]: 39.6 nM | Kd [48]: 21.4 nM | koff (murine CCL4 (mouse) [49]): 0.0212 s⁻¹ | kon (murine CCL4 (mouse) [49]): 8.12e+07 M⁻¹ s⁻¹ | koff (CCL9 [50]): 0.0298 s⁻¹ | kon (CCL9 [50]): 1.65e+06 M⁻¹ s⁻¹ | koff (murine CCL8 (mouse) [51]): 0.0205 s⁻¹ | kon (murine CCL8 (mouse) [51]): 1.66e+07 M⁻¹ s⁻¹ | koff (murine CCL20 (mouse) [52]): 0.0192 s⁻¹ | kon (murine CCL20 (mouse) [52]): 3.42e+06 M⁻¹ s⁻¹ | koff (murine CCL2 (mouse) [53]): 0.00308 s⁻¹ | kon (murine CCL2 (mouse) [53]): 431000 M⁻¹ s⁻¹ | koff (murine CCL24 (mouse) [54]): 0.0053 s⁻¹ | kon (murine CCL24 (mouse) [54]): 506000 M⁻¹ s⁻¹ | koff (murine CCL11 (mouse) [55]): 0.00637 s⁻¹ | kon (murine CCL11 (mouse) [55]): 1.73e+07 M⁻¹ s⁻¹ | koff (murine CCL12 (mouse) [56]): 0.0396 s⁻¹ | kon (murine CCL12 (mouse) [56]): 1.56e+07 M⁻¹ s⁻¹ | koff (murine CCL3 (mouse) [57]): 0.0076 s⁻¹ | kon (murine CCL3 (mouse) [57]): 2.35e+06 M⁻¹ s⁻¹ | koff (murine CCL21 (mouse) [58]): 0.0132 s⁻¹ | kon (murine CCL21 (mouse) [58]): 851000 M⁻¹ s⁻¹ | koff (human CCL2 (human) [59]): 0.0265 s⁻¹ | kon (human CCL2 (human) [59]): 1.51e+07 M⁻¹ s⁻¹ | koff (murine CCL5 (mouse) [60]): 0.0035 s⁻¹ | kon (murine CCL5 (mouse) [60]): 2.41e+06 M⁻¹ s⁻¹ | t1/2 [61]: 54.6 s | t1/2 [62]: 40.1 s | t1/2 [63]: 39.8 s | t1/2 [64]: 20.2 s
